Measured values reported in patent publication US20190201479A1.

Molecular target: IdsE of strain BB2000 with amino acids 147-169 (variable region) replaced by the equivalent sequence of IdsE from strain HI4320 (Proteus mirabilis strain BB2000; Proteus mirabilis strain HI4320)
Experiment: cell-based or functional assay

“IdsD from Proteus mirabilis strain BB2000 (variable region from BB2000)” gave a fold reduction in colony expansion of the 1:1 coswarm (donor CCS06 with CCS05-derived recipient producing DVR-BB and EVR-HI) against the monoculture swarm of the recipient of 3.12 fold and a fold reduction in colony expansion of the 1:1 coswarm (donor CCS06 with CCS05-derived recipient producing DVR-HI and EVR-HI) against the monoculture swarm of the recipient of 3.35 fold.
